Measured values from the DeepSol protein solubility set.

Test: soluble on expression in E. coli; label from the status in PepcDB or PDB records

Row | Sequence | soluble on expression in E. coli
1 | GSHMLITASSSKEYLPDLLLFWQNYEYWITNIGLYKTKQRDLTRTPANLDTDTEECMFWMNYLQKDQSFQLMNFAMENLGALYFGSIGDISELYLRVEQYWDRRADKNHSVDGKYWDALIWSVFTMCIYYMPVEKLAEIFSVYPLHEYLGSNKRLNWEDGMQLVMCQNFARCSLFQLKQCDFMAHPDIRLVQAYLILATTTFPYDEPLLANSLLTQCIHTFKNFHVDDFRPLLNDDPVESIAKVTLGRIFYRLCGCDYLQSGPRKPIALHTEVSSLLQHAAYLQDLPNVDVYREENSTEVLYWKIISLDRDLDQYLNKSSKPPLKTLDAIRRELDIFQYKVDSLEEDFRSNNSRFQKFIALFQISTVSWKLFKMYLIYYDTADSLLKVIHYSKVIISLIVNNFHAKSEFFNRHPMVMQTITRVVSFISFYQIFVESAAVKQLLVDLTELTANLPTIFGSKLDKLVYLTERLSKLKLLWDKVQLLDSGDSFYHPVFKILQNDIKIIELKNDEMFSLIKGLGSLVPLNKLRQESLLEEEDENNTEPSDFRTIVEEFQSEYNISDILS | soluble
2 | MGSDKIHHHHHHSLDQAKKLYNDGKYAEAKPVFEKLVKQAPSNASYNQWYGVCCFETGDLAGAEKHLKVAVKRRVQDAYRYLGEVYYQTYRFNEAEEMFDEYITLLTKKKQDVEPYQIRMDLANKASRMLDKVENVQIIDSLVVDKDNFLSAYTLSEESGTLTTYQDFFQTNDPGNSSVYMNQKEDKIYYAHSTDGNHNCLFTQSKLIDQWGDEKQLPMNINSDADDGYPFVLSDGVTIYYASKGNSSLGGYDLFVTRYNINSDTYLTPEQLGMPYNSPFNDYMMVIDEAKQLGWFVSDRYQPEGKVCVYLFIPNDNRERVDSEDIELKRARASIASIKDSWKPGSNYEELIHLAHTEIPYGRIEIKKDFTFPIHNDIVYYTLDDIQSPEAKNYYEKVVSIHKQIKELNEKLESLRASYIKGNKAKREQLKPTILDTEEKLNNLLGQPDEWEKKARNAEIVYLRNNHK | not soluble
3 | RIDNRNDEILRITGNPYHPLSHQQHIPFETPVKDAYLSLAGEAGLDGRSTACARGNGMLEIRNSPYRITQPLKRVGKRGEGKWIPISYEQLIEEVVEGGDLFGEGHVDGLRDIRDLTTPVDPENPEYGPKANQLLMTNAGNEGRDDIFKRFAFNSYGTRNFGHHGSYCGYAFRAGSGAFMNDLDKNAHLKPDFDNAEYIIFIGMSPAQAGNPFKRQARQLANARTEGSLE | not soluble
4 | TLFDKIWDAHVVTTVEDGPTQLYIDRLYCHEVTSPQAFAGLRERGIKVLRPEKVFCMPDHNTPTHDQDKPIEDPISKTQVDTLTKNAKDFGLTHFGMMHPKNGIIHVVGPERALTLPGMTIVCGDSHTSTHGAMGAIAFGIGTSEVEMVLASQCILQSRPKT | not soluble
